Data on 8 variants can be found in PMC8604728.

B1: unnamed (parent)
chain 1: DYMGWMDF
chain 2: MDVVDSLLVNGSNITPPCELGLENETLFCLDQPRPSKEWQPAVQILLYSLIFLLSVLGNTLVITVLIRNKRMRTVTNIFLLSLAVSDLMLCLFCMPFNLIPNLLKDFIFGSAVCKTTTYFMGTSVSVSTFNLVAISLERYGAICKPLQSRVWQTKSHALKVIAATWCLSFTIMTPYPIYSNLVPFTKNNNQTANMCRFLLPNDVMQQSWHTFLLLILFLIPGIVMMVAYGLISLELYQGIKFEASQKKSAKERKPSTTSSGKYEDSDGCYLQKTRPPRKLELRQLSTGSSSRANRIRSNSSAANLMAKKRVIRMLIVIVVLFFLCWMPIFSANAWRAYDTASAERRLSGTPISFILLLSYTSSCVNPIIYCFMNKRFRLGFMATFPCCPNPGPPGARGEVGEEEEGGTTGASLSRFSYSHMSASVPPQ

In this assay the parent is B1. Nature of the assay: radiolabeled ligand-binding assay (competition with unlabeled CCK-8). The following applies: upper plateau of the fitted competition curve at the lowest CCK-8 concentration (log [CCK-8] = -12), read off a plot.
Turning to chain 2 MDVVDSLLVNGSNITPPCELGLENETLFCLDQPRPSKEWQPAVQILLYSLIFLLSVLGNTLVITVLIRNKRMRTVTNIFLLSLAVSDLMLCLFCMPFNLIPNLLADFIFGSAVCKTTTYFMGTSVSVSTFNLVAISLERYGAICKPLQSRVWQTKSHALKVIAATWCLSFTIMTPYPIYSNLVPFTKNNNQTANMCRFLLPNDVMQQSWHTFLLLILFLIPGIVMMVAYGLISLELYQGIKFEASQKKSAKERKPSTTSSGKYEDSDGCYLQKTRPPRKLELRQLSTGSSSRANRIRSNSSAANLMAKKRVIRMLIVIVVLFFLCWMPIFSANAWRAYDTASAERRLSGTPISFILLLSYTSSCVNPIIYCFMNKRFRLGFMATFPCCPNPGPPGARGEVGEEEEGGTTGASLSRFSYSHMSASVPPQ [chain 2 K105A], the percent of parent came out at 50 % WT.
For chain 2 MDVVDSLLVNGSNITPPCELGLENETLFCLDQPRPSKEWQPAVQILLYSLIFLLSVLGNTLVITVLIRNKRMRTVTNIFLLSLAVSDLMLCLFCMPFNLIPNLLKDFIFGSAVCKTTTYFMGTSVSVSTFNLVAISLERYGAICKPLQSRVWQTKSHALKVIAATWCLSFTIMTPYPIYSNLVPFTKNNNQTANMCRFLLPNDVMQQSWHTFLLLILFLIPGIVMMVAYGLISLELYQGIKFEASQKKSAKERKPSTTSSGKYEDSDGCYLQKTRPPRKLELRQLSTGSSSRANRIRSNSSAANLMAKKRVIRMLIVIVVLFFLCWMPIFSANAWRAYDTASAERRLSGTPISFILLLSATSSCVNPIIYCFMNKRFRLGFMATFPCCPNPGPPGARGEVGEEEEGGTTGASLSRFSYSHMSASVPPQ [chain 2 Y360A] the value was 28 % WT.
Under chain 2 MDVVDSLLVNGSNITPPCELGLENETLFCLDQPRPSKEWQPAVQILLYSLIFLLSVLGNTLVITVLIRNKRMRTVTNIFLLSLAVSDLMLCLFCMPFNLIPNLLKDFIFGSAVCKTTTYFMGTSVSVSTFNLVAISLERYGAICKPLQSRVWQTKSHALKVIAATWCLSFTIMTPYPIYSNLVPFTKNNNQTANMCRFLLPNDVMQQSWATFLLLILFLIPGIVMMVAYGLISLELYQGIKFEASQKKSAKERKPSTTSSGKYEDSDGCYLQKTRPPRKLELRQLSTGSSSRANRIRSNSSAANLMAKKRVIRMLIVIVVLFFLCWMPIFSANAWRAYDTASAERRLSGTPISFILLLSYTSSCVNPIIYCFMNKRFRLGFMATFPCCPNPGPPGARGEVGEEEEGGTTGASLSRFSYSHMSASVPPQ [chain 2 H210A] stands 70 % WT; under chain 2 MDVVDSLLVNGSNITPPCELGLENETLFCLDQPRPSKEWQPAVQILLYSLIFLLSVLGNTLVITVLIRNKRMRTVTNIFLLSLAVSDLMLCLFCMPFNLIPNLLKDFIFGSAVCKTTTYFMGTSVSVSTFNLVAISLERYGAICKPLQSRVWQTKSHALKVIAATWCLSFTIMTPYPIYSNLVPATKNNNQTANMCRFLLPNDVMQQSWHTFLLLILFLIPGIVMMVAYGLISLELYQGIKFEASQKKSAKERKPSTTSSGKYEDSDGCYLQKTRPPRKLELRQLSTGSSSRANRIRSNSSAANLMAKKRVIRMLIVIVVLFFLCWMPIFSANAWRAYDTASAERRLSGTPISFILLLSYTSSCVNPIIYCFMNKRFRLGFMATFPCCPNPGPPGARGEVGEEEEGGTTGASLSRFSYSHMSASVPPQ [chain 2 F185A], 15 % WT.
For chain 2 MDVVDSLLVNGSNITPPCELGLENETLFCLDQPRPSKEWQPAVQILLYSLIFLLSVLGNTLVITVLIRNKRMRTVTNIFLLSLAVSDLMLCLFCMPFNLIPNLLKDFIFGSAVCKTTTYFAGTSVSVSTFNLVAISLERYGAICKPLQSRVWQTKSHALKVIAATWCLSFTIMTPYPIYSNLVPFTKNNNQTANMCRFLLPNDVMQQSWHTFLLLILFLIPGIVMMVAYGLISLELYQGIKFEASQKKSAKERKPSTTSSGKYEDSDGCYLQKTRPPRKLELRQLSTGSSSRANRIRSNSSAANLMAKKRVIRMLIVIVVLFFLCWMPIFSANAWRAYDTASAERRLSGTPISFILLLSYTSSCVNPIIYCFMNKRFRLGFMATFPCCPNPGPPGARGEVGEEEEGGTTGASLSRFSYSHMSASVPPQ [chain 2 M121A] the value was 230 % WT; for chain 2 MDVVDSLLVNGSNITPPCELGLENETLFCLDQPRPSKEWQPAVQILLYSLIFLLSVLGNTLVITVLIRNKRMRTVTNIFLLSLAVSDLMLCLFCMPFNLIPNLLKDFIFGSAVCKTTTYFMGTSVSVSTFNLVAISLERYGAICKPLQSRVWQTKSHALKVIAATWCLSFTIMTPYPIYSNLVPFTKNNNQTANACRFLLPNDVMQQSWHTFLLLILFLIPGIVMMVAYGLISLELYQGIKFEASQKKSAKERKPSTTSSGKYEDSDGCYLQKTRPPRKLELRQLSTGSSSRANRIRSNSSAANLMAKKRVIRMLIVIVVLFFLCWMPIFSANAWRAYDTASAERRLSGTPISFILLLSYTSSCVNPIIYCFMNKRFRLGFMATFPCCPNPGPPGARGEVGEEEEGGTTGASLSRFSYSHMSASVPPQ [chain 2 M195A], 30 % WT.
Regarding chain 2 MDVVDSLLVNGSNITPPCELGLENETLFCLDQPRPSKEWQPAVQILLYSLIFLLSVLGNTLVITVLIRNKRMRTVTNIFLLSLAVSDLMLCLFCMPFNLIPNLLKDFIFGSAVCKTTAYFMGTSVSVSTFNLVAISLERYGAICKPLQSRVWQTKSHALKVIAATWCLSFTIMTPYPIYSNLVPFTKNNNQTANMCRFLLPNDVMQQSWHTFLLLILFLIPGIVMMVAYGLISLELYQGIKFEASQKKSAKERKPSTTSSGKYEDSDGCYLQKTRPPRKLELRQLSTGSSSRANRIRSNSSAANLMAKKRVIRMLIVIVVLFFLCWMPIFSANAWRAYDTASAERRLSGTPISFILLLSYTSSCVNPIIYCFMNKRFRLGFMATFPCCPNPGPPGARGEVGEEEEGGTTGASLSRFSYSHMSASVPPQ [chain 2 T118A], the percent of parent turned out to be 110 % WT.
With chain 2 MDVVDSLLVNGSNITPPCELGLENETLFCLDQPRPSKEWQPAVQILLYSLIFLLSVLGNTLVITVLIRNKRMRTVTNIFLLSLAVSDLMLCLFCMPFNLIPNLLKDFIFGSAVCKTTTYFMGTSASVSTFNLVAISLERYGAICKPLQSRVWQTKSHALKVIAATWCLSFTIMTPYPIYSNLVPFTKNNNQTANMCRFLLPNDVMQQSWHTFLLLILFLIPGIVMMVAYGLISLELYQGIKFEASQKKSAKERKPSTTSSGKYEDSDGCYLQKTRPPRKLELRQLSTGSSSRANRIRSNSSAANLMAKKRVIRMLIVIVVLFFLCWMPIFSANAWRAYDTASAERRLSGTPISFILLLSYTSSCVNPIIYCFMNKRFRLGFMATFPCCPNPGPPGARGEVGEEEEGGTTGASLSRFSYSHMSASVPPQ [chain 2 V125A], the percent of parent was determined as 75 % WT.
